Data set [1] addresses T1, FL-CXXC5 (human, UniProt Q7LFL8 1-322).
T1 sequence: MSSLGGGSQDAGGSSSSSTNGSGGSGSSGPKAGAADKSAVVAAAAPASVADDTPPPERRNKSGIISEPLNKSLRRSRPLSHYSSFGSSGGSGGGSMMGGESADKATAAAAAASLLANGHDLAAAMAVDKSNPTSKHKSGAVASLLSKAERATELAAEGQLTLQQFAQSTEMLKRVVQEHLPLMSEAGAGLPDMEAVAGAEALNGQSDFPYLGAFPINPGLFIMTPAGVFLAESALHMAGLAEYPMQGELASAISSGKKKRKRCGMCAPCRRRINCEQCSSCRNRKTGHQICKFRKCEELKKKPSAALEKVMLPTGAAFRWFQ
Put plainly: ITC; ITC: 10 uM protein, 300 uM DNA, 25 C, VP-ITC, one-site fit; DNA annealed in 20 mM Tris pH 7.5, 150 mM NaCl; protein eluted in 20 mM Tris pH 7.5, 150 mM NaCl, 1. The note with it: protein: recombinant, tags: 6xHis removed by TEV (pET28a-MHL), blunt. For orientation: In ITC the heat of successive injections is recorded.

The target in data set [2] is T2, CXXC-D (CXXC domain of CXXC5) (human, UniProt Q7LFL8 250-309).
T2 sequence: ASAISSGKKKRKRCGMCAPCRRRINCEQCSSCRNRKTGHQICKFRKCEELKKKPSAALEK
The description is as above. The note with it: protein: recombinant; tags: 6xHis removed by TEV (pET28a-MHL); blunt.

Data set [3] concerns the target T1, FL-CXXC5. Put plainly: ITC; similar affinity to N1; ITC: 10 uM protein, 300 uM DNA, 25 C, VP-ITC, one-site fit; DNA annealed in 20 mM Tris pH 7.5, 150 mM NaCl; protein eluted in 20 mM Tris pH 7.5, 150 mM NaCl, 1. The note with it: protein: recombinant; tags: 6xHis removed by TEV (pET28a-MHL); blunt; self-complementary.

B1: AT DNA, distinct flanks (dsDNA)
DNA 1: GAGAGACATGTCTCTC
DNA 2: GAGAGACATGTCTCTC
As to B1, the binding result in data set [1] (self-complementary) was “no binding”.

B2: mCG DNA (dsDNA)
DNA 1: GTGATACCGGATCAGT
DNA 2: ACTGATCCGGTATCAC
modifications: 5-methyl-C at position 8 (GTGATACmCGGATCAGT); lower strand presumably also methylated at its central CpG
As for B2, in data set [1], the binding result is “no binding”.

B3: CG DNA (dsDNA)
DNA 1: GTGATACCGGATCAGT
DNA 2: ACTGATCCGGTATCAC
Take B3: the binding result in data set [1] and in data set [2] was “binds” throughout.

B4: mCG DNA, distinct flanks (dsDNA)
DNA 1: GAGAGACCGGTCTCTC
DNA 2: GAGAGACCGGTCTCTC
modifications: 5-methyl-C at position 8 (central mCG; self-complementary, so both strands)
In the case of B4, in data set [1] (self-complementary), the binding result is on record as “no binding”.

B5: CG DNA, distinct flanks (dsDNA)
DNA 1: GAGAGACCGGTCTCTC
DNA 2: GAGAGACCGGTCTCTC
For B5, the binding result in data set [3] is recorded as “binds”.

B6: AT DNA (dsDNA)
DNA 1: GTGATACATGATCAGT
DNA 2: ACTGATCATGTATCAC
With B6, the binding result in data set [1] is listed as “no binding”.

Values taken from publication PMC7136269, “CXXC5 as an unmethylated CpG dinucleotide binding protein contributes to estrogen-mediated cellular proliferation”.
